Experiments:
[1] = target: the molecule itself; assay: SAXS; purified complexes at three concentrations each (0.5, 1.0, 2.5 mg/ml tGeminin-tGeminin; 1.0, 2.0, 6.0 mg/ml tIdas-tIdas and tIdas-tGeminin); X13 beamline, EMBL-Hamburg; Guinier plot and distance distribution
Cdt1 (115-353) [2] = target: T1, Cdt1 (115-353) (UniProt Q9H211 115-353); assay: ITC
T1 chain: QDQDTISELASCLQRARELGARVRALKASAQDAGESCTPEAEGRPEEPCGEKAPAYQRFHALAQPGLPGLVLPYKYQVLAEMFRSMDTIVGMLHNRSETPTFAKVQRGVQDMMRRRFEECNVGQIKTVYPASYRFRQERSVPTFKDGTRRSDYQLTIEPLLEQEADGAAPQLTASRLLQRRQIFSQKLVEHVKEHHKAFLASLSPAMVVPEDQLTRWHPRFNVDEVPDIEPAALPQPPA

Cdt1 (115-353) [3] = target: Cdt1 (115-353) (UniProt Q9H211); assay: ITC; 25 °C; 25 mM HEPES/NaOH pH 7.5, 150 mM NaCl, 0.5 mM Tris(2-carboxyethyl)phosphine; 28 injections of 10 μl of the protein dimers (2-80 μM) into 1.4 ml of Cdt1 (0.2-10 μM)
Cdt1 (115-353) [4] = target: Cdt1 (115-353) (UniProt Q9H211)
Cdt1 (115-353) [5] = target: T2, Cdt1 (115-353) (UniProt Q9H211 115-353); assay: cell-based or functional assay
T2 sequence (looked up): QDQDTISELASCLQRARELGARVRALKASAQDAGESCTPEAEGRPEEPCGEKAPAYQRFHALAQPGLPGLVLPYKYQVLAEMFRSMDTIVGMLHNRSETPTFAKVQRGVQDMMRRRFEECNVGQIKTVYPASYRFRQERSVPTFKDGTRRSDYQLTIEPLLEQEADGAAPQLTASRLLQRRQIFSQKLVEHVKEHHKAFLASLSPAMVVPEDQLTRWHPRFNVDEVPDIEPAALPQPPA

Cdt1 (115-353) [6] = target: T2, Cdt1 (115-353); assay: ITC; 25 °C; 25 mM HEPES/NaOH pH 7.5, 150 mM NaCl, 0.5 mM Tris(2-carboxyethyl)phosphine; 28 injections of 10 μl of the protein dimers (2-80 μM) into 1.4 ml of Cdt1 (0.2-10 μM); settings: both partners purified

B1: tIdas, coiled-coil domain of Idas (residues 173-245) (domain or fragment, UniProt D6RGH6 173-245, looked up)
chain: PDVPPPEQYWKEVADQNQRALGDALVENNQLHVTLTQKQEEIASLKERNVQLKELASRTRHLASVLDKLMITQ
notes: Idas (Multicilin), residues 173-245 (coiled-coil construct tIdas); Single chain, used for the rows of tIdas with itself and with tGeminin; Cleavable His tag; also called Multicilin; source: expressed on its own, or co-expressed with Geminin in Escherichia coli; purified
stoichiometry N [1]: 2

B2: tGeminin-tGeminin homodimer (complex)
chain: TQESFDLMIKENPSSQYWKEVAEKRRKALYEALKENEKLHKEIEQKDNEIARLKKENKELAEVAEHVQYMAELIERLNG
Kd (Cdt1 (115-353) [2]): 2.6 nM | Kd (Cdt1 (115-353) [3]): 3.5 nM | IC50 of inhibition of replication licensing and DNA replication of sperm DNA in Xenopus egg extract (Cdt1 of the extract), increasing concentrations of the dimer (Cdt1 (115-353) [4]): 50 nM

B3: tIdas-tGeminin heterodimer (complex)
chain 1: PDVPPPEQYWKEVADQNQRALGDALVENNQLHVTLTQKQEEIASLKERNVQLKELASRTRHLASVLDKLMITQ
chain 2: TQESFDLMIKENPSSQYWKEVAEKRRKALYEALKENEKLHKEIEQKDNEIARLKKENKELAEVAEHVQYMAELIERLNG
notes: Idas (Multicilin), residues 173-245; Geminin, human, residues 82-160; Preformed heterodimer; also called tGeminin-tIdas; Idas-Geminin heterodimer; source: co-expression in Escherichia coli, purified (IMAC by the His tag on Idas, size exclusion chromatography); copies: 1 + 1
IC50 of inhibition of replication licensing and DNA replication of sperm DNA in Xenopus egg extract (Cdt1 of the extract), increasing concentrations of the dimer (Cdt1 (115-353) [5]): ~720 nM | Kd (Cdt1 (115-353) [6]): ~35 nM | dH less favourable than for tGeminin-tGeminin binding to Cdt1 (Cdt1 (115-353) [6]): 21.1 kcal/mol

B4: tGeminin, coiled-coil domain of Geminin (residues 82-160) (domain or fragment, human, UniProt O75496 82-160, looked up)
chain: TQESFDLMIKENPSSQYWKEVAEKRRKALYEALKENEKLHKEIEQKDNEIARLKKENKELAEVAEHVQYMAELIERLNG
notes: Geminin, human, residues 82-160 (coiled-coil construct tGeminin); Single chain, used for the rows of tGeminin with itself and with tIdas; Cloned both with a cleavable His tag and without tag; In the co-expressed complex the tag was on Idas; source: expressed on its own, or co-expressed with Idas in Escherichia coli; purified
stoichiometry N [1]: 2
